Columns and labels:
[1] = target: FcγRIIB (form not stated) (UniProt P31994); assay: ELISA
[2] = target: soluble monomeric FcγRIIIA, the extracellular region of FcγRIIIA joined to the linker-AVITAG sequence (UniProt P08637); assay: BIAcore, Ab on BSA-FITC
[3] = target: FcγRIIB-Fc fusion protein, soluble dimer: extracellular domain of FcγRIIB fused to the hinge-CH2-CH3 domain of human IgG2 (human) (UniProt P31994); assay: BIAcore, Ab on BSA-FITC
[4] = target: soluble monomeric FcγRIIIA, the extracellular region of FcγRIIIA joined to the linker-AVITAG sequence (UniProt P08637); assay: ELISA

Chain of FcγRIIB-Fc fusion protein, soluble dimer: extracellular domain of FcγRIIB fused to the hinge-CH2-CH3 domain of human IgG2 (human) (P31994 43-217 limits assumed): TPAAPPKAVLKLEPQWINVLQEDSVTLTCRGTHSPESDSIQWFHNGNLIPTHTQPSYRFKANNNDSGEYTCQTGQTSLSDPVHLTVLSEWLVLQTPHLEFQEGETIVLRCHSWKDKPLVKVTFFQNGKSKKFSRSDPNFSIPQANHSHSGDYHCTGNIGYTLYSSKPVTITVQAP
Chain of FcγRIIB (form not stated) (P31994 43-217 limits assumed): as above

ELISA binding, fold vs Wt [1] [X]	Kd [2] [nM]	Kd [3] [nM]	ELISA, OD [4] [OD]	Substance
9				ch4-4-20 MGFc 28 (N315I, A379M, D399E) (antibody)
	264	66.5	0.6	ch4-4-20 Mut 6 (S219V) (from UniProt P01857 1-330) (antibody)
	128			ch4-4-20 Mut 10 (P396L, A330S, K288N) (from UniProt P01857 1-330) (antibody)
	75.4			ch4-4-20 Mut 14 (K334E, K288N) (from UniProt P01857 1-330) (antibody)
			0.5	ch4-4-20 wild type (from UniProt P01857 1-330) (antibody)

From patent publication US20080112961A1
